Substitutions are numbered along the chain they refer to. Names and notes keep the numbering of the source.
B1: CE115HA000 S52cA one-arm antibody (antibody, human IgG1, kappa, L234A L235A, N297A, name in Kabat numbering)
heavy: QVQLVESGGGVVQPGRSLRLSCAASGFTFSNAWMHWVRQAPGKGLEWVAQIKAKANNYATYYAESVKGRFTISRDDSKNSLYLQMNSLKTEDTAVYYCRYVHYGAYYGVDAWGQGTTVTVSSASTKGPSVFPLAPSSKSTSGGTAALGCLVKDYFPEPVTVSWNSGALTSGVHTFPAVLQSSGLYSLSSVVTVPSSSLGTQTYICNVNHKPSNTKVDKKVEPKSCDKTHTCPPCPAPEAAGGPSVFLFPPKPKDTLMISRTPEVTCVVVDVSHEDPEVKFNWYVDGVEVHNAKTKPREEQYASTYRVVSVLTVLHQDWLNGKEYKCKVSNKALPAPIEKTISKAKGQPREPQVYTLPPSRCELTKNQVSLSCAVKGFYPSDIAVEWESNGQPENNYKTTPPVLDSDGSFFLVSKLTVDKSRWQQGNVFSCSVMHEALHNHYTQKSLSLSPDYKDDDDK
chain: EPKSSDKTHTCPPCPAPELLGGPSVFLFPPKPKDTLMISRTPEVTCVVVDVSHEDPEVKFNWYVDGVEVHNAKTKPREEQYNSTYRVVSVLTVLHQDWLNGKEYKCKVSNKALPAPIEKTISKAKGQPREPQVCTLPPSRDELTKNQVSLWCLVKGFYPSDIAVEWESNGQPENNYKTTPPVLDSDGSFFLYSKLTVDKSRWQQGNVFSCSVMHEALHNRYTQKSLSLSP
light: DIVMTQSPLSLPVTPGEPASISCRSSQSLVHSNRNTYLHWYQQKPGQAPRLLIYKVSNRFSGVPDRFSGSGSGTDFTLKISRVEAEDVGVYYCGQGTQVPYTFGQGTKLEIKRTVAAPSVFIFPPSDEQLKSGTASVVCLLNNFYPREAKVQWKVDNALQSGNSQESVTEQDSKDSTYSLSSTLTLSKADYEKHKVYACEVTHQGLSSPVTKSFNRGEC
notes: one-arm antibody
B2: CE115HA000 S74A one-arm antibody (antibody, human IgG1, kappa, L234A L235A, N297A, name in Kabat numbering)
heavy: B1 heavy with A55S, S77A
chain: B1 chain
light: B1 light
notes: one-arm antibody
B3: CE115HA000 W33A one-arm antibody (antibody, human IgG1, kappa, L234A L235A, N297A, name in Kabat numbering)
heavy: B1 heavy with W33A, A55S
chain: B1 chain
light: B1 light
notes: one-arm antibody
B4: CE115HA000 S52cY one-arm antibody (antibody, human IgG1, kappa, L234A L235A, N297A, name in Kabat numbering)
heavy: B1 heavy with A55Y
chain: B1 chain
light: B1 light
notes: one-arm antibody
B5: CE115HA000 S52cD one-arm antibody (antibody, human IgG1, kappa, L234A L235A, N297A, name in Kabat numbering)
heavy: B1 heavy with A55D
chain: B1 chain
light: B1 light
notes: one-arm antibody
B6: CE115HA000 S52cV one-arm antibody (antibody, human IgG1, kappa, L234A L235A, N297A, name in Kabat numbering)
heavy: B1 heavy with A55V
chain: B1 chain
light: B1 light
notes: one-arm antibody
B7: CE115HA000 W33H one-arm antibody (antibody, human IgG1, kappa, L234A L235A, N297A, name in Kabat numbering)
heavy: B1 heavy with W33H, A55S
chain: B1 chain
light: B1 light
notes: one-arm antibody
B8: CE115HA000 S62E one-arm antibody (antibody, human IgG1, kappa, L234A L235A, N297A, name in Kabat numbering)
heavy: B1 heavy with A55S, S65E
chain: B1 chain
light: B1 light
notes: one-arm antibody
B9: CE115HA000 S52cG one-arm antibody (antibody, human IgG1, kappa, L234A L235A, N297A, name in Kabat numbering)
heavy: B1 heavy with A55G
chain: B1 chain
light: B1 light
notes: one-arm antibody
B10: CE115HA000 T57K one-arm antibody (antibody, human IgG1, kappa, L234A L235A, N297A, name in Kabat numbering)
heavy: B1 heavy with A55S, T60K
chain: B1 chain
light: B1 light
notes: one-arm antibody
B11: CE115HA000 T57A one-arm antibody (antibody, human IgG1, kappa, L234A L235A, N297A, name in Kabat numbering)
heavy: B1 heavy with A55S, T60A
chain: B1 chain
light: B1 light
notes: one-arm antibody
B12: CE115HA000 Y55D one-arm antibody (antibody, human IgG1, kappa, L234A L235A, N297A, name in Kabat numbering)
heavy: B1 heavy with A55S, Y58D
chain: B1 chain
light: B1 light
notes: one-arm antibody
B13: CE115HA000 V11L one-arm antibody (antibody, human IgG1, kappa, L234A L235A, N297A, name in Kabat numbering)
heavy: B1 heavy with V11L, A55S
chain: B1 chain
light: B1 light
notes: one-arm antibody
B14: CE115HA000 T28D one-arm antibody (antibody, human IgG1, kappa, L234A L235A, N297A, name in Kabat numbering)
heavy: B1 heavy with T28D, A55S
chain: B1 chain
light: B1 light
notes: one-arm antibody
B15: CE115HA000 W33Y one-arm antibody (antibody, human IgG1, kappa, L234A L235A, N297A, name in Kabat numbering)
heavy: B1 heavy with W33Y, A55S
chain: B1 chain
light: B1 light
notes: one-arm antibody
B16: CE115HA000 S52cK one-arm antibody (antibody, human IgG1, kappa, L234A L235A, N297A, name in Kabat numbering)
heavy: B1 heavy with A55K
chain: B1 chain
light: B1 light
notes: one-arm antibody
B17: CE115HA000 S52cF one-arm antibody (antibody, human IgG1, kappa, L234A L235A, N297A, name in Kabat numbering)
heavy: B1 heavy with A55F
chain: B1 chain
light: B1 light
notes: one-arm antibody
B18: CE115HA000 W33L one-arm antibody (antibody, human IgG1, kappa, L234A L235A, N297A, name in Kabat numbering)
heavy: B1 heavy with W33L, A55S
chain: B1 chain
light: B1 light
notes: one-arm antibody
B19: CE115HA000 W33F one-arm antibody (antibody, human IgG1, kappa, L234A L235A, N297A, name in Kabat numbering)
heavy: B1 heavy with W33F, A55S
chain: B1 chain
light: B1 light
notes: one-arm antibody
B20: CE115HA000 S62D one-arm antibody (antibody, human IgG1, kappa, L234A L235A, N297A, name in Kabat numbering)
heavy: B1 heavy with A55S, S65D
chain: B1 chain
light: B1 light
notes: one-arm antibody
B21: CE115HA000 Y58D one-arm antibody (antibody, human IgG1, kappa, L234A L235A, N297A, name in Kabat numbering)
heavy: B1 heavy with A55S, Y61D
chain: B1 chain
light: B1 light
notes: one-arm antibody
B22: CE115HA000 S52cL one-arm antibody (antibody, human IgG1, kappa, L234A L235A, N297A, name in Kabat numbering)
heavy: B1 heavy with A55L
chain: B1 chain
light: B1 light
notes: one-arm antibody
B23: CE115HA000 T28S one-arm antibody (antibody, human IgG1, kappa, L234A L235A, N297A, name in Kabat numbering)
heavy: B1 heavy with T28S, A55S
chain: B1 chain
light: B1 light
notes: one-arm antibody
B24: CE115HA000 S52cQ one-arm antibody (antibody, human IgG1, kappa, L234A L235A, N297A, name in Kabat numbering)
heavy: B1 heavy with A55Q
chain: B1 chain
light: B1 light
notes: one-arm antibody
B25: CE115HA000 Y58A one-arm antibody (antibody, human IgG1, kappa, L234A L235A, N297A, name in Kabat numbering)
heavy: B1 heavy with A55S, Y61A
chain: B1 chain
light: B1 light
notes: one-arm antibody
B26: CE115HA000 Y58K one-arm antibody (antibody, human IgG1, kappa, L234A L235A, N297A, name in Kabat numbering)
heavy: B1 heavy with A55S, Y61K
chain: B1 chain
light: B1 light
notes: one-arm antibody
B27: CE115HA000 W33D one-arm antibody (antibody, human IgG1, kappa, L234A L235A, N297A, name in Kabat numbering)
heavy: B1 heavy with W33D, A55S
chain: B1 chain
light: B1 light
notes: one-arm antibody
B28: CE115HA000 Y55G one-arm antibody (antibody, human IgG1, kappa, L234A L235A, N297A, name in Kabat numbering)
heavy: B1 heavy with A55S, Y58G
chain: B1 chain
light: B1 light
notes: one-arm antibody
B29: CE115HA000 T57I one-arm antibody (antibody, human IgG1, kappa, L234A L235A, N297A, name in Kabat numbering)
heavy: B1 heavy with A55S, T60I
chain: B1 chain
light: B1 light
notes: one-arm antibody
B30: CE115HA000 S62K one-arm antibody (antibody, human IgG1, kappa, L234A L235A, N297A, name in Kabat numbering)
heavy: B1 heavy with A55S, S65K
chain: B1 chain
light: B1 light
notes: one-arm antibody
B31: CE115HA000 Y59E one-arm antibody (antibody, human IgG1, kappa, L234A L235A, N297A, name in Kabat numbering)
heavy: B1 heavy with A55S, Y62E
chain: B1 chain
light: B1 light
notes: one-arm antibody
B32: CE115HA000 Y59D one-arm antibody (antibody, human IgG1, kappa, L234A L235A, N297A, name in Kabat numbering)
heavy: B1 heavy with A55S, Y62D
chain: B1 chain
light: B1 light
notes: one-arm antibody
B33: CE115HA000 Y59A one-arm antibody (antibody, human IgG1, kappa, L234A L235A, N297A, name in Kabat numbering)
heavy: B1 heavy with A55S, Y62A
chain: B1 chain
light: B1 light
notes: one-arm antibody

These binders were tested against T1, CD3 epsilon homodimer protein (UniProt P07766 23-126) (assay: SPR Biacore T200, antibody over immobilised CD3e homodimer;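 note: CD3 epsilon homodimer amine-coupled on a CM4 chip, run at 25 °C in HBS-EP+, Z = bound amount of each single-residue H chain variant over that of the parent antibody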).
T1 construct: also called CD3 (CD3 epsilon)
T1 sequence (P07766 23-126): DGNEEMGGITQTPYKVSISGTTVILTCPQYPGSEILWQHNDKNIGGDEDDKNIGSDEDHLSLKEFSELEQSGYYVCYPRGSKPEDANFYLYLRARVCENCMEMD
Experimental: An appropriate amount of CD3 epsilon homodimer protein was immobilized onto Sensor chip CM4 (GE Healthcare Japan Corp.) by the amine coupling method. Then, the antibody having an appropriate concentration was injected thereto as an analyte and allowed to interact with the CD3 epsilon homodimer protein on the sensor chip. Then, the sensor chip was regenerated by the injection of 10 mmol/L glycine-HCl (pH 1.5). The assay was conducted at 25 degrees C., and HBS-EP+(GE Healthcare Japan Corp.) was used as a running buffer. […] Each parameter was calculated using Biacore T200 Evaluation Software (GE Healthcare Japan Corp.).
Specifically, when the amount of the antibody comprising CE115HA000 bound was defined as X and the amount of the H chain one-amino acid altered form bound was defined as Y, a value of Z (ratio of amounts bound)=Y/X was used.

ratio of amounts bound (Z=Y/X vs CE115HA000) | Binder
0.96 | B1
1.05 | B2
0.1 | B3
1.11 | B4
0.6 | B5
0.93 | B6
0.13 | B7
0.92 | B8
0.97 | B9
1.32 | B10
0.98 | B11
0.45 | B12
1 | B13
0.56 | B14
0.66 | B15
1.19 | B16
1.13 | B17

ratio of amounts bound (Z=Y/X vs CE115HA000) | Binder
0.1 | B18
0.65 | B19
0.92 | B20
0.11 | B21
0.98 | B22
0.91 | B23
1.04 | B24
0.22 | B25
0.3 | B26
0.1 | B27
0.55 | B28
0.61 | B29
1.19 | B30
0.66 | B31
0.7 | B32
0.85 | B33

— patent US20240270846A1 (published 2024)
